Eight molecules from patent publication US20140087995A1 (published 2014) can be followed below.

Numbered stars: 1 amine (or outer) side, 2 acyl side, 3 side chain; on linkers, the order of the positions; unused ones are H or OH. Bridge positions count the residues as written; N and C are the ends. Side chains are listed from the residue outwards. Ends that are not written are not given here. * marks the point of attachment. C20 diacid = O=C(O)CCCCCCCCCCCCCCCCCCC(=O)*; γGlu = O=C(O)[C@H](CCC(=O)[*:2])N[*:1]

T1: human amylin receptor (amylin 3(a) receptor: human calcitonin receptor with RAMP-3) (human, UniProt P30988 25-474; O60896 24-148)
T1 sequence (looked up) 1: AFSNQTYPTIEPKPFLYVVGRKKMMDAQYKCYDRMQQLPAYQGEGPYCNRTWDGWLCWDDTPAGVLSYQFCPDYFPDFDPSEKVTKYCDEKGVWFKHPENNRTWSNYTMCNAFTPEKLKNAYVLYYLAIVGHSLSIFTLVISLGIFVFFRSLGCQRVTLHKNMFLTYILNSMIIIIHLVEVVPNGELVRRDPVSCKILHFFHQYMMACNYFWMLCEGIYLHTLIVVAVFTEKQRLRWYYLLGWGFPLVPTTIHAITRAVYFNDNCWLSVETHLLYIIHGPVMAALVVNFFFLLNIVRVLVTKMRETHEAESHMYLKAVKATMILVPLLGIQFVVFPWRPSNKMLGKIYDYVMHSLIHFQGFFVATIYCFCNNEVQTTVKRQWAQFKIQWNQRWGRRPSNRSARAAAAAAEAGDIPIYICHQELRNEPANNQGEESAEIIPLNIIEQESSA
T1 sequence (looked up) 2: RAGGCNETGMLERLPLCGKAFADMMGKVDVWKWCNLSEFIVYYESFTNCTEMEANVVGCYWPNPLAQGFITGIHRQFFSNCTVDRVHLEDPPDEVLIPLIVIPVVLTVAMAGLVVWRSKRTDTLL

T2: human calcitonin receptor (human, UniProt P30988 25-474)
T2 sequence (looked up): T1 sequence (looked up) 1

T3: human calcitonin receptor (human, UniProt P30988 25-474)
T3 construct: whole, on cells; Membranes in a scintillation proximity assay (Assay VII); also called hCTR; hCT
T3 sequence (looked up): T1 sequence (looked up) 1

B1: N^ε1-[(4S)-4-carboxy-4-[[(4S)-4-carboxy-4-(19-carboxynonadecanoylamino)butanoyl]amino]butanoyl]-[Asp14,Arg17,Pro21,Pro26,Asp35]-h-amylin (peptide)
peptide: K([γGlu-γGlu-C20 diacid])CNTATCATQRLADFLRHSSPNFGAPLSSTNVGSDTY-NH2
modifications: disulfide 2-7; N-terminus assumed
SMILES: CC(C)C[C@H](NC(=O)[C@H](CCCNC(=N)N)NC(=O)[C@H](CCC(N)=O)NC(=O)[C@@H](NC(=O)[C@H](C)NC(=O)[C@@H]1CSSC[C@H](NC(=O)[C@@H](N)CCCCNC(=O)CC[C@H](NC(=O)CC[C@H](NC(=O)CCCCCCCCCCCCCCCCCCC(=O)O)C(=O)O)C(=O)O)C(=O)N[C@@H](CC(N)=O)C(=O)N[C@@H]([C@@H](C)O)C(=O)N[C@@H](C)C(=O)N[C@@H]([C@@H](C)O)C(=O)N1)[C@@H](C)O)C(=O)N[C@@H](C)C(=O)N[C@@H](CC(=O)O)C(=O)N[C@@H](Cc1ccccc1)C(=O)N[C@@H](CC(C)C)C(=O)N[C@@H](CCCNC(=N)N)C(=O)N[C@@H](Cc1c[nH]cn1)C(=O)N[C@@H](CO)C(=O)N[C@@H](CO)C(=O)N1CCC[C@H]1C(=O)N[C@@H](CC(N)=O)C(=O)N[C@@H](Cc1ccccc1)C(=O)NCC(=O)N[C@@H](C)C(=O)N1CCC[C@H]1C(=O)N[C@@H](CC(C)C)C(=O)N[C@@H](CO)C(=O)N[C@@H](CO)C(=O)N[C@H](C(=O)N[C@@H](CC(N)=O)C(=O)N[C@H](C(=O)NCC(=O)N[C@@H](CO)C(=O)N[C@@H](CC(=O)O)C(=O)N[C@H](C(=O)N[C@@H](Cc1ccc(O)cc1)C(N)=O)[C@@H](C)O)C(C)C)[C@@H](C)O
notes: also called compound 1
B2: N^ε1-[(4S)-4-carboxy-4-[[(4S)-4-carboxy-4-(19-carboxynonadecanoylamino)butanoyl]amino]butanoyl]-[Asp14,Arg17,Pro22,Pro26,Asp35]-h-amylin (peptide)
peptide: K([γGlu-γGlu-C20 diacid])CNTATCATQRLADFLRHSSNPFGAPLSSTNVGSDTY-NH2
modifications: disulfide 2-7; N-terminus assumed
SMILES: CC(C)C[C@H](NC(=O)[C@H](CCCNC(=N)N)NC(=O)[C@H](CCC(N)=O)NC(=O)[C@@H](NC(=O)[C@H](C)NC(=O)[C@@H]1CSSC[C@H](NC(=O)[C@@H](N)CCCCNC(=O)CC[C@H](NC(=O)CC[C@H](NC(=O)CCCCCCCCCCCCCCCCCCC(=O)O)C(=O)O)C(=O)O)C(=O)N[C@@H](CC(N)=O)C(=O)N[C@@H]([C@@H](C)O)C(=O)N[C@@H](C)C(=O)N[C@@H]([C@@H](C)O)C(=O)N1)[C@@H](C)O)C(=O)N[C@@H](C)C(=O)N[C@@H](CC(=O)O)C(=O)N[C@@H](Cc1ccccc1)C(=O)N[C@@H](CC(C)C)C(=O)N[C@@H](CCCNC(=N)N)C(=O)N[C@@H](Cc1c[nH]cn1)C(=O)N[C@@H](CO)C(=O)N[C@@H](CO)C(=O)N[C@@H](CC(N)=O)C(=O)N1CCC[C@H]1C(=O)N[C@@H](Cc1ccccc1)C(=O)NCC(=O)N[C@@H](C)C(=O)N1CCC[C@H]1C(=O)N[C@@H](CC(C)C)C(=O)N[C@@H](CO)C(=O)N[C@@H](CO)C(=O)N[C@H](C(=O)N[C@@H](CC(N)=O)C(=O)N[C@H](C(=O)NCC(=O)N[C@@H](CO)C(=O)N[C@@H](CC(=O)O)C(=O)N[C@H](C(=O)N[C@@H](Cc1ccc(O)cc1)C(N)=O)[C@@H](C)O)C(C)C)[C@@H](C)O
notes: also called compound 3
B3: N^ε1-[(4S)-4-carboxy-4-(19-carboxynonadecanoylamino)butanoyl]-[Asp14,Arg17,Pro21,Pro27,Pro34,Arg35]-h-amylin (peptide)
peptide: K([γGlu-C20 diacid])CNTATCATQRLADFLRHSSPNFGAIPSSTNVGPRTY-NH2
modifications: disulfide 2-7 (inferred)
B4: N^ε1-[(4S)-4-carboxy-4-[[(4S)-4-carboxy-4-(19-carboxynonadecanoylamino)butanoyl]amino]butanoyl]-[Glu14,Arg17,Pro21,Pro27,Pro34,His35]-h-amylin (peptide)
peptide: K([γGlu-γGlu-C20 diacid])CNTATCATQRLAEFLRHSSPNFGAIPSSTNVGPHTY-NH2
modifications: disulfide 2-7 (inferred)
B5: N^ε1-[(4S)-4-carboxy-4-(19-carboxynonadecanoylamino)butanoyl]-[Asp14,Arg17,Pro21,Pro27,Pro34,Glu35]-h-amylin (peptide)
peptide: K([γGlu-C20 diacid])CNTATCATQRLADFLRHSSPNFGAIPSSTNVGPETY-NH2
modifications: disulfide 2-7 (inferred)
B6: N^ε1-[(4S)-4-carboxy-4-[[(4S)-4-carboxy-4-(19-carboxynonadecanoylamino)butanoyl]amino]butanoyl]-[Glu14,Arg17,Pro21,Pro27,Pro34,Phe37]-h-amylin (peptide)
peptide: K([γGlu-γGlu-C20 diacid])CNTATCATQRLAEFLRHSSPNFGAIPSSTNVGPNTF-NH2
modifications: disulfide 2-7 (inferred)
B7: N^ε1-[(4S)-4-carboxy-4-(19-carboxynonadecanoylamino)butanoyl]-[Glu14,Arg17,Pro21,Pro27,His35]-h-amylin (peptide)
peptide: K([γGlu-C20 diacid])CNTATCATQRLAEFLRHSSPNFGAIPSSTNVGSHTY-NH2
modifications: disulfide 2-7 (inferred)
B8: N^ε1-[(4S)-4-carboxy-4-[[(4S)-4-carboxy-4-(19-carboxynonadecanoylamino)butanoyl]amino]butanoyl]-[Asp14,Arg17,Pro21,Pro27,Pro34,Arg35]-h-amylin (peptide)
peptide: K([γGlu-γGlu-C20 diacid])CNTATCATQRLADFLRHSSPNFGAIPSSTNVGPRTY-NH2
modifications: disulfide 2-7 (inferred)
notes: also called compound 130

For the first test, the target named is T1, human amylin receptor (amylin 3(a) …). The experiment in a line: cell-based or functional assay.
For B1, the “hAmylin-R funct. EC50” value was determined as 0.224 nM.
Regarding B2, the “hAmylin-R funct. EC50” value was 0.205 nM.

A further test deals with T2, human calcitonin receptor. Put plainly: cell-based or functional assay.
For B1, the “Ratio hCT/hAmylin funct.” value was 12 and the “hCTR funct. EC50” value is 2.7 nM.
For B2, in that order: 6.7 and 1.38 nM.

The next test concerns the target T3, human calcitonin receptor. The experiment in a line: ratio of IC50 at human calcitonin receptor to IC50 at human amylin receptor (reference), SPA binding assays. Here is the method: The resulting pellet was resuspended, homogenized and centrifuged (20.000 rpm, 15 min) in a buffer containing 20 mM Na-HEPES and 0.1 mM EDTA (pH 7.4, buffer 2). The resulting pellet was resuspended in buffer 2 and protein concentration was measured (BCA protein Assay, Pierce). The homogenate was kept cold during the whole procedure. The membranes were kept at −80° C. until use. The assay was performed in a 384 well Optiplate (PerkinElmer) in a total volume of 40 ul. Membranes were mixed with SPA beads. Final concentration of membranes 35 ng/μL final and SPA beads was 0.05 mg/well. Test-compounds were dissolved in DMSO and further diluted in assay buffer (50 mM Hepes, pH 7.4, 1 mM CaCl2, 5 mM MgCl₂, 0.1% OA and 0.02% Tween20). […] The final mixture was incubated with shaking at 400 rpm for 120 min at 25° C. prior to centrifugation (1500 rpm, 10 min). Samples were analyzed on TopCounter™ (Packard). The IC₅₀ was calculated using (one site binding competition analysis) GraphPad Prism5 as a measure of receptor affinity.
Membranes were prepared in the following way; the cells were rinsed with PBS and incubated with Versene for approximately 5 min before harvesting. The cells were flushed with PBS and the cell-suspension was centrifuged for 5 min at 1000 rpm. Cells were homogenized (Ultrathurrax) in a buffer containing 20 mM Na-HEPES and 10 mM EDTA (pH 7.4) and centrifuged at 20.000 rpm for 15 min. The resulting pellet was resuspended, homogenized and centrifuged (20.000 rpm, 15 min) in a buffer containing 20 mM Na-HEPES and 0.1 mM EDTA (pH 7.4, buffer 2). The resulting pellet was resuspended in buffer 2 and protein concentration was measured (BCA protein Assay, Pierce). The homogenate was kept cold during the whole procedure. The membranes were kept at −80° C. until use. Assay was performed in a 384 well Optiplate (PerkinElmer) in a total volume of 40 ul. Membranes were mixed with SPA beads.
Regarding B3, the “Ratio hCT/hAmylin binding” value worked out at 151.
On the same count and under the same terms, as for B4, the figure is 27.3.
Turning to B5, the “Ratio hCT/hAmylin binding” value came out at 16.7.
Same read-out and setting: as for B6, the figure is 18; as for B7, 26.4.
The same measure, in the same setting: as for B8, the figure is 280.

In a further test the target is T1, human amylin receptor (amylin 3(a) …). Put plainly: SPA competition, displacement of 125I-rat amylin from membranes of BHK cells with the human amylin 3(a) receptor. Here is the method: The binding assay was performed using scintillation proximity assay (SPA) beads (RPNQ0001) from PerkinElmer and cell membranes from the Amylin 3(a)/CRE-luc cells (as described in Assay (II)) were used. Membranes were prepared in the following way; the cells were rinsed with PBS and incubated with Versene for approximately 5 min before harvesting. The cells were flushed with PBS and the cell-suspension was centrifuged for 5 min at 1000 rpm. Cells were homogenized (ultrathurrax) in a buffer containing 20 mM Na-HEPES and 10 mM EDTA (pH 7.4) and centrifuged at 20.000 rpm for 15 min. The resulting pellet was resuspended, homogenized and centrifuged (20.000 rpm, 15 min) in a buffer containing 20 mM Na-HEPES and 0.1 mM EDTA (pH 7.4, buffer 2). The resulting pellet was resuspended in buffer 2 and protein concentration was measured (BCA protein Assay, Pierce). The homogenate was kept cold during the whole procedure. The membranes were kept at −80° C. until use. The assay was performed in a 384 well Optiplate (PerkinElmer) in a total volume of 40 ul. Membranes were mixed with SPA beads. Final concentration of membranes 35 ng/μL final and SPA beads was 0.05 mg/well. Test-compounds were dissolved in DMSO and further diluted in assay buffer (50 mM Hepes, pH 7.4, 1 mM CaCl2, 5 mM MgCl₂, 0.1% OA and 0.02% Tween20). […] The final mixture was incubated with shaking at 400 rpm for 120 min at 25° C. prior to centrifugation (1500 rpm, 10 min). Samples were analyzed on TopCounter™ (Packard). The IC₅₀ was calculated using (one site binding competition analysis) GraphPad Prism5 as a measure of receptor affinity.
With B1, the concentration for half-maximal inhibition (IC50) amounted to 1.18 nM.
For B2, the IC50 came to 1.13 nM.

A further test concerns the target T3, human calcitonin receptor. Put plainly: SPA competition binding, displacement of 125I-calcitonin from membranes with human calcitonin receptor (Assay VII). Here is the method:
Membranes were prepared in the following way; the cells were rinsed with PBS and incubated with Versene for approximately 5 min before harvesting. The cells were flushed with PBS and the cell-suspension was centrifuged for 5 min at 1000 rpm. Cells were homogenized (Ultrathurrax) in a buffer containing 20 mM Na-HEPES and 10 mM EDTA (pH 7.4) and centrifuged at 20.000 rpm for 15 min. The resulting pellet was resuspended, homogenized and centrifuged (20.000 rpm, 15 min) in a buffer containing 20 mM Na-HEPES and 0.1 mM EDTA (pH 7.4, buffer 2). The resulting pellet was resuspended in buffer 2 and protein concentration was measured (BCA protein Assay, Pierce). The homogenate was kept cold during the whole procedure. The membranes were kept at −80° C. until use. Assay was performed in a 384 well Optiplate (PerkinElmer) in a total volume of 40 ul. Membranes were mixed with SPA beads. Final concentration of membranes 35 ng/μL final and Final concentration of SPA beads was 0.05 mg/well. Test-compounds were dissolved in DMSO and further diluted in assay buffer (50 mM Hepes, pH 7.4, 1 mM CaCl2, 5 mM MgCl₂, 0.1% OA and 0.02% Tween20). […] The final mixture was incubated for 120 min with shaking at 400 rpm at 25° C. prior to centrifugation (1500 rpm, 10 min). Samples were analyzed on TopCounter™ (Packard). The […] was calculated using (one site binding competition analysis) GraphPad Prism5 as a measure of receptor affinity.
As to B3, the IC50 is 42.5 nM.
Still for that read-out and setting: as for B4, the figure is 10.3 nM.
On the same count and under the same terms, the value for B5 was 3.27 nM; that for B6 was 2.73 nM.
The same measure, in the same setting: as for B7, the figure is 26.1 nM; as for B8, 127 nM.
